Measurements taken from patent US20240350682A1 (FUSION PHARMACEUTICALS, published 2024).

T1: six-transmembrane epithelial antigen of prostate-2 (STEAP2) (human, UniProt Q8NFT2 1-490)
T1 construct: Endogenous STEAP2 on prostate cancer cell lines (LNCaP, C4-2, 22RV1); also called STEAP2 receptor
T1 sequence: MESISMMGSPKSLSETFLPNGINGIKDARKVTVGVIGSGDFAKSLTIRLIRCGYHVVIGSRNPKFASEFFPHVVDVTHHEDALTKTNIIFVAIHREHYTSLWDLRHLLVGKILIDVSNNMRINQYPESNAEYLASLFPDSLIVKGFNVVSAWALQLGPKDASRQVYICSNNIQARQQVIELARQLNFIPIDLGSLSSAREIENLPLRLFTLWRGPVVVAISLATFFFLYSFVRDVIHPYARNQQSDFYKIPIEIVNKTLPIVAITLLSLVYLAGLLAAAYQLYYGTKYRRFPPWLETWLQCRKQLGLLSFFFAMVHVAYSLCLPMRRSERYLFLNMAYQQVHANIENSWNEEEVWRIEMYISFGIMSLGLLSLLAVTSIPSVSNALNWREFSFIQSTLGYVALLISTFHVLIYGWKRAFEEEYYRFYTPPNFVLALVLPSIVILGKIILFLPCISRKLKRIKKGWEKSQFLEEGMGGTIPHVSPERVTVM


Assays:
[1] = biological target: T1, six-transmembrane epithelial antigen of …; assay: cell binding on LNCaP cells
[2] = biological target: T1, six-transmembrane epithelial antigen of …; assay: cell-based binding on LNCaP cells
[3] = biological target: T1, six-transmembrane epithelial antigen of …; assay: radioligand saturation binding on C4-2 cells, single-site fit of specific binding
Procedure: (§1) The purpose of this assay was to ensure that the radioimmunoconjugates maintained the binding characteristics of the native antibody in STEAP2 expressing cell lines including C4-2, 22RV1 and LNCaP. One day prior to the experiment, cells (1.5-2×10⁵) were seeded in 48-well microplates in 500 μL supplemented medium. At the start of the assay, cells were washed with PBS once and then treated with either Binding Buffer or 5 μM cold antibody [total binding (TB) and non-specific binding (NSB) respectively]. Plates were incubated at 4° C. for about one hour with mild shaking. Following incubation, both […] and NSB cells were treated with increasing concentrations of [¹⁷⁷Lu]-STEAP2 (40A3-LO11) or [¹⁷⁷Lu]-STEAP2 (40A3-LO14) (0.098 nM to 50 nM) and were incubated at 4° C. for about two hours with mild shaking.
(§2) Following incubation, the cells were washed twice with PBS and were then lysed with 1% Triton-X-100. The lysates were transferred to gamma counting tubes and run along with the standard of [¹⁷⁷Lu]-STEAP2 (40A3-LO11) or [¹⁷⁷Lu]-STEAP2 (40A3-LO14) on the Wizard 1470 gamma counter to determine the amount of radioactivity in counts per minute (CPM) for each lysate. The remaining lysate from each well (25 μL) was used for analyzing the protein content using a standard protein quantification assay.

[4] = biological target: T1, six-transmembrane epithelial antigen of …; assay: saturation radioligand binding on C4-2 cells (4 °C); specific = total minus nonspecific binding in the presence of excess unlabeled antibody; single-site fit
Procedure: as §1, §2

[5] = biological target: T1, six-transmembrane epithelial antigen of …; assay: radioligand saturation binding on 22RV1 cells, single-site fit of specific binding
Procedure: as §1, §2

[6] = biological target: T1, six-transmembrane epithelial antigen of …; assay: radioligand saturation binding on LNCaP cells, single-site fit of specific binding
Procedure: as §1, §2

[7] = biological target: T1, six-transmembrane epithelial antigen of …; assay: saturation radioligand binding on 22RV1 cells (4 °C); specific = total minus nonspecific binding in the presence of excess unlabeled antibody; single-site fit
Procedure: as §1, §2

[8] = biological target: T1, six-transmembrane epithelial antigen of …; assay: saturation radioligand binding on LNCaP cells (4 °C); specific = total minus nonspecific binding in the presence of excess unlabeled antibody; single-site fit
Procedure: as §1, §2

EC50 [1] [nM] | fold improvement in binding relative to 40A3-LO7 [2] [fold] | Kd [3] [nM] | Kd [4] [nM] | Kd [5] [nM] | Kd [6] [nM] | Kd [7] [nM] | Kd [8] [nM] | Binder
1.67 | 26 | – | – | – | – | – | – | 40A3-LO14 (IgG1-TM) (antibody, V domains shown, Human IgG1 kappa with reduced effector function (IgG1-TM); also called 40A3GL-LO14; 40A3-LO14 hIgG-TM) VH: QVQLQQSGPGLVKPSQTLSLTCAISGDSVSRNSAVWNWIRQSPSRGLEWLGRTYYRSKWYNDYAPSVKSRITINPDTSKNQFSLQLNSVTPEDTAVYYCARGLRQNQFYYYMDVWGKGTTVTVSS VL: not shown
– | – | ~2.8 | 2.82 | ~3.2 | ~0.79 | 3.26 | – | [177Lu]-STEAP2 (40A3-LO14) (antibody, human IgG1, kappa, V domains shown, 177Lu complex of the DOTA chelate of Compound C (PEG3 linker) conjugated to the antibody through its tetrafluorophenyl ester; sites and chain not stated; typical chelate to antibody ratios 5-5.5, also called [177Lu]-Compound C-anti-STEAP2 conjugate; [177Lu]-DOTA-anti-STEAP2 conjugate) VH: QVQLQQSGPGLVKPSQTLSLTCAISGDSVSRNSAVWNWIRQSPSRGLEWLGRTYYRSKWYNDYAPSVKSRITINPDTSKNQFSLQLNSVTPEDTAVYYCARGLRQNQFYYYMDVWGKGTTVTVSS VL: not shown
2.38 | – | – | – | – | – | – | – | 40A3-LO11 (IgG1-TM) (antibody, V domains shown) VH: QVQLQQSGPGLVKPSQTLSLTCAISGDSVSRNSAVWNWIRQSPSRGLEWLGRTYYRSKWYNDYAPSVKSRITINPDTSKNQFSLQLNSVTPEDTAVYYCARGLLQNQFYYYMDVWGKGTTVTVSS VL: not shown
– | – | ~6.9 | 6.58 | ~6.7 | ~1.2 | 6.77 | 1.24 | [177Lu]-STEAP2 (40A3-LO11) (antibody, human IgG1, kappa, V domains shown, 177Lu complex of the DOTA chelate of Compound C (PEG3 linker) conjugated to the antibody; sites, chain and ratio not stated for this antibody, Radioimmunoconjugate of 40A3-LO11; also called [177Lu]-Compound C-anti-STEAP2 conjugate) VH: QVQLQQSGPGLVKPSQTLSLTCAISGDSVSRNSAVWNWIRQSPSRGLEWLGRTYYRSKWYNDYAPSVKSRITINPDTSKNQFSLQLNSVTPEDTAVYYCARGLLQNQFYYYMDVWGKGTTVTVSS VL: not shown
